Molecular target: C. elegans UNC-13 long isoform residues 1-258 bearing the K49E mutation (C. elegans)
Experiment: ITC

B1: C. elegans UNC-10 residues 62-121 WT (domain or fragment)
chain: KLVGTQDDAICQICQKTKFADGIGHKCFYCQLRSCARCGGRAQSKNKAIWACSLCQKRQQ
- Kd: 1.29 µM

From paper doi:10.1101/388868
